In US20250206820A1:
Numbering of substitutions follows the chain as printed.

B1: 3A3 Fab coupled with CD3 scFv 2B2 (bispecific antibody, part only; not given: CD3 scFv 2B2, V domains shown, part only)
VH: QVQLKESGPGLVAPSQSLSITCTVSGFSLTSYGVHWVRQPPGKGLEWLGVIWPGGTINYNSALMSRLSISKDNSKSQVFLKLNSLQTDDTAMYYCASDKYDGGWFAYWGQGTLVTVSA
VL: DIVMTQSQKFMSTSVGDRVSITCKASQNVRTAVAWYQQKPGQSPEALIYLASNRHTGVPDRFTGSGSGTDFSLSISNVQSEDLADYFCLQHLNYPLTFGSGTKLEIK
B2: 3A3 Fab coupled with CD3 scFv 1G4 (bispecific antibody, part only; not given: CD3 scFv 1G4, V domains shown, part only)
VH: B1 VH
VL: B1 VL
B3: Hz45G10 Fab coupled with CD3 scFv 1G4 (bispecific antibody, part only; not given: CD3 scFv 1G4, V domains shown, part only)
VH: EVQLVESGGGLVQPGGSLRLSCAASGFTFSDYGMHWVRQAPGKGLEWVAYIFSGSSTIYYADTVKGRFTISRDNAKNSLYLQMNSLRAEDTAVYYCARADGRGAMDYWGQGTLVTVSS
VL: DIQMTQSPSSLSASVGDRVTITCRASQDISKFLNWYQQKPGKAPKLLIYYTSRLHSGVPSRFSGSGSGTDFTFTISSLQPEDIATYFCQQGNTLPWTFGGGTKLEIK
B4: 48A6 Fab coupled with CD3 scFv 2B2 (bispecific antibody, part only; not given: CD3 scFv 2B2, V domains shown, part only)
VH: EVQLVESGGDLMKPGGSLKLSCAASGFTFSSYGMSWVRQTPDKRLEWVATISSGGTYTFYPDSVKGRFTISRDNAKNTLYLQMSSLKSEDTAMYYCARRGWLLHYYAMDYWGQGTSVTVSS
VL: NIVLTQSPASLAVSLGQRATISCRPSESVDSFGNSFMHWFQQKPGQPPKLLIYLSSKLESGVPARFSGSGSRTDFTLTIDPVEADDAATYYCQQHNEDPFTFGSGTKLEIK
B5: 48A6 Fab coupled with CD3 scFv 1G4 (bispecific antibody, part only; not given: CD3 scFv 1G4, V domains shown, part only)
VH: B4 VH
VL: B4 VL
B6: 16C5 Fab coupled with CD3 scFv 1G4 (bispecific antibody, part only; not given: CD3 scFv 1G4, V domains shown, part only)
VH: EVQLQQSGPELVKPGASVKISCKASGYTFTDYNMDWVKQSHGKSLEWIGYIYPSNGGTGYNQKFKSKATLTVDKSSNTAYMELHSLTSEDSAVYYCARVPYYDYLYYYAMDYWGQGTSVTVSS
VL: QIVLSQSPAILSASPGEKVTMACRASSSVSFMHWYQQKPGSSPQPWIYATSNLASGVPARFSGSGSGTSYSLTISRVEAEDAATYYCQQWSTNPYMYTFGGGTKLEIK
B7: 12A12 Fab coupled with CD3 scFv 1G4 (bispecific antibody, part only; not given: CD3 scFv 1G4, V domains shown, part only)
VH: B6 VH with S54N, K65N, N77S, R98S, V99S, L105V, Y106G, Y107S
VL: QIVLTQSPAIMSASLGERVTMTCTASSSVSSSYLHWYQQKPGSSPKLWIYSTSNLASGVPARFSGSGSGTSYSLTISSMEAEDAATYYCHQYHRSPRTFGGGTKLEIK
B8: 12A12 Fab coupled with CD3 scFv 2B2 (bispecific antibody, part only; not given: CD3 scFv 2B2, V domains shown, part only)
VH: B6 VH with S54N, K65N, N77S, R98S, V99S, L105V, Y106G, Y107S
VL: B7 VL
B9: 16C5 Fab coupled with CD3 scFv 2B2 (bispecific antibody, part only; not given: CD3 scFv 2B2, V domains shown, part only)
VH: B6 VH
VL: B6 VL
B10: 53F10 Fab coupled with CD3 scFv 2B2 (bispecific antibody, part only; not given: CD3 scFv 2B2, V domains shown, part only)
VH: EVQVVESGGGLVKPGGSLKLSCAASGFTFSDYGMHWVRQAPEKGLEWVAYISTGIITVYYADTVKGRFTMSRDNAKNTLFLQMTSLRSEDTAIYYCARADGRGAMDYWGQGTSVIVSS
VL: DIQMTQTTSSLSASLGDRVTISCRASQDISNFLNWYQQKPDGTVTLLIYYTSRLHSGVPSRFSGSGSGTDYSLTISNLEQEDFATYFCQQGNTLPWTFGGGTKLEIK
B11: 53F10 Fab coupled with CD3 scFv 1G4 (bispecific antibody, part only; not given: CD3 scFv 1G4, V domains shown, part only)
VH: B10 VH
VL: B10 VL

Molecular target: ILT3 on target cells (MOLM13, OCI-AML-2, NALM-1, THP-1, MM1S, H929, U226B1 and other lines) (human) (UniProt Q8NHJ6)
Test: cell-based or functional assay

Sequence of ILT3 on target cells (MOLM13, OCI-AML-2, NALM-1, THP-1, MM1S, H929, U226B1 and other lines) (human) (Q8NHJ6 22-448, one chain of several): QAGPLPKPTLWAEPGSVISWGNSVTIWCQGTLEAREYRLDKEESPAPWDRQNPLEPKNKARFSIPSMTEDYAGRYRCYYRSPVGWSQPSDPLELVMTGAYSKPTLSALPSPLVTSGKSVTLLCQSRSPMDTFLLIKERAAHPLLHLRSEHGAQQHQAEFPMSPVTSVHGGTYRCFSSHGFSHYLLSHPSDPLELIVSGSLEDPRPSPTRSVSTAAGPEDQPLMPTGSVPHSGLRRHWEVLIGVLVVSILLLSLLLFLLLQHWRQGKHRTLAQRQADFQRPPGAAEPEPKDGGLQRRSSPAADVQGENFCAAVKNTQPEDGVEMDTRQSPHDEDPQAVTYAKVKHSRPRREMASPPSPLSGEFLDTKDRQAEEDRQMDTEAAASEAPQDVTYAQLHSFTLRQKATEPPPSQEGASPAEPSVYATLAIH

| TDCC, EC50 [nM] | TNF-α, EC50 (nM), cytokine release in the TDCC co-culture [nM] | Binder |
| --- | --- | --- |
| 0.4 | 79.4 | B1 |
| 50.1 | – | B2 |
| 1.26 | – | B3 |
| 0.025 | 2.51 | B4 |
| 0.5 | – | B5 |
| 50.1 | – | B6 |
| 251 | – | B7 |
| 3.16 | 2510 | B8 |
| 3.16 | 398 | B9 |
| 0.013 | 2 | B10 |
| 2 | – | B11 |
